The series concerns the target MBP-TaWRKY71 (Triticum aestivum (wheat) cv. KN9204, UniProt A0A3S6GV84 1-300). The experiment in a line: EMSA; complex signal weakened by 200-fold unlabeled competitor; LightShift chemiluminescent EMSA, 6% gel (printed as SDS-PAGE); 25 min at room temperature; probe annealed in 10 mM Tris-HCl pH 7.6, 1 mM EDTA, 50 mM NaCl; binding buffer not stated. Particulars: protein: recombinant; tags: N-terminal MBP (pMALC2X); label: 5' biotin; blunt. For orientation: In EMSA bound probe runs differently from free probe, usually more slowly.

MBP-TaWRKY71, sequence (A0A3S6GV84 entry or part of it): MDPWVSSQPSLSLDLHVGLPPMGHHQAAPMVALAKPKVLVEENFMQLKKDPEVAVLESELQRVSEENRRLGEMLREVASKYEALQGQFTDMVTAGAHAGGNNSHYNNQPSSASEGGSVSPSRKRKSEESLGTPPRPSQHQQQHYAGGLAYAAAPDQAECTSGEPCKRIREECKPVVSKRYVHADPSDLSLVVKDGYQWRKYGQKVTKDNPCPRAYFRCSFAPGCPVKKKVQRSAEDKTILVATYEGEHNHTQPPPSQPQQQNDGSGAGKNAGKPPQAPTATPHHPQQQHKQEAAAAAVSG

B1: P-W probe (TaPIP1A promoter) (dsDNA)
DNA 1: CATGACATGACAGGTGAGGTGACACCACAAG
DNA 2: CTTGTGGTGTCACCTCACCTGTCATGTCATG
Regarding B1, the binding result is recorded as “binds”.

For the origin of these results see PMC12172022, “Overexpression of TaPIP1A enhances drought and salt stress tolerance in Arabidopsis: cross-species conservation and molecular dynamics”.
